Experimental findings from US20210388105A1 (ELPISCIENCE SUZHOU BIOPHARMA, published 2021) are described below.

Experiment [1] deals with T1, KW27-4 (human CD39 mutant, C-terminal EGFP) (human, UniProt P49961 1-510).
T1 construct: expressed on HEK293F cells; not shown: C-terminal EGFP fusion (vector pCMV3-GFPSpark)
T1 chain: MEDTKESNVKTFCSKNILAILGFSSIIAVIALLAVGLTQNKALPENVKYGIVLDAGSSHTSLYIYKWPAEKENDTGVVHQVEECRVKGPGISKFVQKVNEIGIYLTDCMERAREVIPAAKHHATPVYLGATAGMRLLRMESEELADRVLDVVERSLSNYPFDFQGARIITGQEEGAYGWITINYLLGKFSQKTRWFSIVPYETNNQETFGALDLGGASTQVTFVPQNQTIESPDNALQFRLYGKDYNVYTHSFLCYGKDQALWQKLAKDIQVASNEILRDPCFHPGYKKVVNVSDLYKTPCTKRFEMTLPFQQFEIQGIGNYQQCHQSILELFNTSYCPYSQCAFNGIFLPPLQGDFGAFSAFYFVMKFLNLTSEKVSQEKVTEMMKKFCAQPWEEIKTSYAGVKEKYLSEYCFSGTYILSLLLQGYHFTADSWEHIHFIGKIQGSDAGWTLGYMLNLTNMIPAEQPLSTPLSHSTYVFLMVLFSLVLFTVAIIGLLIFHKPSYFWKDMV
Description: FACS, mutant-EGFP on HEK293F cells. The protocol:
(§1) Briefly, the human CD39 mutants were generated by gene synthesis and then cloned into an expression vector pCMV3-GFPSpark. The vectors containing the validated mutated sequences were prepared and transfected into HEK293F cells. Three days post transfection, the cells were collected to testing EGFP for transgene expression. A range of dosages of antibodies (start from 100 nM, 3-folds dilution, 11 points) were tested on the 20 generated mutants and stained by AlexFluor647 labelled anti-hIgG by FACS. Antibody binding was descripted as relative binding which is derived from AlexFluor647 intensity divided by GFP intensity.
On the technique in general: Flow cytometry measures light scatter and fluorescence of single cells or particles in a stream.

For experiment [2], the target named is T2, KW27-8 (human CD39 mutant, C-terminal EGFP) (human, UniProt P49961 1-510).
T2 construct: expressed on HEK293F cells; not shown: C-terminal EGFP fusion (vector pCMV3-GFPSpark)
T2 chain: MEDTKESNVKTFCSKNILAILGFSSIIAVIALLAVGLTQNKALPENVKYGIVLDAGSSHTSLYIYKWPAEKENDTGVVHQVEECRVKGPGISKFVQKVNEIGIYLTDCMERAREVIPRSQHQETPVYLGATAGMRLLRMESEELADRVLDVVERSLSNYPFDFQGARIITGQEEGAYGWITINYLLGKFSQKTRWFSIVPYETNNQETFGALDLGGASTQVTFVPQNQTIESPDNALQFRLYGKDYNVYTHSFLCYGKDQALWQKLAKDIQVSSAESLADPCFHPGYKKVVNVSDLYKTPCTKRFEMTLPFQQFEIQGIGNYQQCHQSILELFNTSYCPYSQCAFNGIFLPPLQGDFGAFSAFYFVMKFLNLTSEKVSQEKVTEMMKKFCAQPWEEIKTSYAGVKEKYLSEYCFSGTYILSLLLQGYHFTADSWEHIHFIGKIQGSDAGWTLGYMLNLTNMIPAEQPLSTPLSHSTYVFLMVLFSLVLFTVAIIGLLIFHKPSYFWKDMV
As to the kind of experiment: FACS, mutant-EGFP on HEK293F cells. On the procedure:
as §1

For experiment [3], the target named is T3, human CD39 (protein; form not stated) (human, UniProt P49961 38-478, limits assumed).
T3 construct: also called ENTPD1; ENTPDase 1
T3 sequence: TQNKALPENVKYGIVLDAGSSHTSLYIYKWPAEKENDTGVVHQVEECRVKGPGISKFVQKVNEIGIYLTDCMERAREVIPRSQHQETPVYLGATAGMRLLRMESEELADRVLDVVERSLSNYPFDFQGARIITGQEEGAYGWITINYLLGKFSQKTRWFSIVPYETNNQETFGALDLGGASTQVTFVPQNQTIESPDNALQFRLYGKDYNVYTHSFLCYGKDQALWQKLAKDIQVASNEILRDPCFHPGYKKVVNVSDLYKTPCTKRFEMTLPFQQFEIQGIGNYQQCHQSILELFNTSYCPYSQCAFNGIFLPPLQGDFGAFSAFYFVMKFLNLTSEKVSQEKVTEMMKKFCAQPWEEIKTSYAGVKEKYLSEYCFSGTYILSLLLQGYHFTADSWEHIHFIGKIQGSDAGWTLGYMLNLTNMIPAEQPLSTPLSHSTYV
As to the kind of experiment: Octet (BLI), antibody on sensor, CD39 in solution. On the procedure:
Briefly, the antibodies were coupled on sensors and then the sensors were dipped into CD39 gradients (start at 200 nM, with 2-fold dilution and totally 8 doses). Their binding responses were measured in real-time and results were fit globally.
For orientation: BLI is a label-free optical method that tracks binding on a fibre tip over time.

For a further experiment, the target named is T4, kw27 (Intracellular C-terminal EGFP fusion, left out of the letters).
T4 construct: not shown: C-terminal EGFP (GFPSpark) reporter of vector pCMV3-GFPSpark and any linker to it
T4 chain: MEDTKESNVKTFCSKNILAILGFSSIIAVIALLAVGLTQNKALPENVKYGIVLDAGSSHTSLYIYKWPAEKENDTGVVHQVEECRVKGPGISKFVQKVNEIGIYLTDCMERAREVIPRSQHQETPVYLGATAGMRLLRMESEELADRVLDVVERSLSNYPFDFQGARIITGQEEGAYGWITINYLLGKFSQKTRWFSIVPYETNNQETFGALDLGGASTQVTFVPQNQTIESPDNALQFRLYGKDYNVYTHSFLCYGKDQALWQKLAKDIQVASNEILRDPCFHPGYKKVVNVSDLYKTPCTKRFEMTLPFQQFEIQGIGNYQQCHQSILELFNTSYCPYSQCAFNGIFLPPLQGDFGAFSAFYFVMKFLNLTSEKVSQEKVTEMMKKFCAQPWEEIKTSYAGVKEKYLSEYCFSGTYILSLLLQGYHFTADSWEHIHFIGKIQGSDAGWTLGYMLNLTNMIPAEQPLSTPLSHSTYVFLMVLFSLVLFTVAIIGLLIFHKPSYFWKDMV
Description: FACS on transfected HEK293F cells, relative binding = AlexaFluor647 / GFP. On the procedure:
as §1

B1: Antibody 9-8B (antibody, V domains shown)
VH: QIQLVQSGPELKKPGETVKISCKASGYTFTHYGMNWVKQAPGKGLKWMGWINTYTGELTYADDFKGRFAFSLETSASTAYLQINNLKNEDTATYFCARRAYYRYDYVMDYWGQGTSVTVSS
VL: DIVMTQSQKFMSTSVGDRVSVTCKASHNVGTNVAWYQQKPGQSPKALIYSASYRYSGVPGRFTGSGSGTDFTLTISNVQSEDLAEYFCHQYNNYPYTFGGGTKLEIK
Broadly, the Kd is the equilibrium constant for the complex coming apart. A higher Kd goes with weaker binding. A word on the koff: it is a measure of how fast the partners let go of each other. Read a high koff as a short-lived complex. The kon is a measure of how fast the partners come together. A lower kon goes with slower complex formation. On to B1, for which, in experiment [1], the binding result is given as “binds”. Moreover, the binding result in experiment [2] is “binds”. In experiment [3], this molecule came in with a Kd of 20.2 nM, a koff of 0.00243 s⁻¹ and an on-rate (kon) of 120000 M⁻¹ s⁻¹. The binding result in the experiment with kw27 is “binds”.

B2: c35 (antibody, V domains shown)
VH: EVRLQQSGAELVKPGASVKLSCTASGFNIEDTYVHWMKQRPEQGLEWIGRIDPAIDNSKYDPKFQGKATITAVSSSNTAYLQLSSLTSEDTAVYYCALYDGYNVYAMDYWGQGTSVTVSS
VL: DIVMTQAAFSNPVTLGTSASISCRSSKNLLHSNGITYLYWYLQRPGQSPQLLIYRASTLASGVPNRFSGSESGTDFTLRISRVEAEDVGVYYCAQLLELPHTFGGGTKLEIK
notes: its making is not described; also called chimeric antibody c35
In the case of B2, the binding result (in experiment [1]; in experiment [2]; with kw27) was “binds” each time.

B3: c34 (antibody, V domains shown)
VH: EIQVQQSGPELVKPGASVKVSCKASGYSFTDYNMYWVKQSHGKSLEWIGFIDPYNGYTSYNQKFKGKATLTIDKSSSTAFMHLNSLTSEDSAVYYCAIYGYDDAYYFDYWGQGTTLTVSS
VL: QIVLTQSPAIMSASPGEKVTITCSATSSVSYMHWFRQKPGTSPKLWIYSTSNLASGVPARFSGSGSGTSYSLTISRMAAEDAATYYCQQRITYPFTFGSGTKLEIT
notes: its making is not described; also called chimeric antibody c34
For B3, the binding result (in experiment [1]; in experiment [2]; in the experiment with kw27) was “binds” throughout.

B4: Antibody T895 (antibody, V domains shown)
VH: EVQLQQSGPELVKPGASVKMSCKASGYTFTDYNMHWVKQSHGRTLEWIGYIVPLNGGSTFNQKFKGRATLTVNTSSRTAYMELRSLTSEDSAAYYCARGGTRFAYWGQGTLVTVSA
VL: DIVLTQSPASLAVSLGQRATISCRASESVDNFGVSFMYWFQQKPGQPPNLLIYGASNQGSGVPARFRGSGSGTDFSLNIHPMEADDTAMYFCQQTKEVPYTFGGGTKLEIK
notes: also called 31895
Turning to B4, in experiment [1], the binding result is recorded as “binds”. Besides, the binding result in experiment [2] is recorded as “binds”. In experiment [3], the affinity, expressed as Kd, was 6.62 nM; the koff was found to be 0.00444 s⁻¹; the kon stood at 671000 M⁻¹ s⁻¹. Besides, in the experiment with kw27, the binding result is reported as “binds”.

B5: hu23.H5L5 (antibody, V domains shown)
VH: QVQLVQSGAEVKKPGASVKVSCKASGYNLKDTFLHWVRQAPGQGLEWMGRIDPANGNIKYDPKFQGRVTITADTSANTAYMELISLRSEDTAVYYCANSPYYYGSGYRIFDVWGQGTTVTVSS
VL: QIVLTQSPATLSLSPGERATLSCSAFSSVNYMHWYQQKPGQAPRLLIYTTSNLASGIPTRFSGSGSGTSYTLTISSLEPEDFAVYYCQQRSTYPFTFGQGTKLEIK
notes: humanized c23
Turning to B5, the binding result in experiment [1] is on record as “binds”. In addition, in experiment [2], the binding result was “binds”. Also, in experiment [3], the Kd was found to be 0.687 nM, the koff is 9.36e-05 s⁻¹ and the kon is 136000 M⁻¹ s⁻¹. The binding result in the experiment with kw27 is reported as “binds”.
